Data published in the Immune Epitope Database (IEDB).

What was measured:
Experiment in all cases: IEDB peptide-MHC binding, purified MHC/competitive/radioactivity; filed as Kd, often an IC50 or EC50 that approximates it; ≥ and ≤ were set here for values at or beyond the usual limits of such assays
Conditions in all cases: source organism: Toxoplasma gondii
HLA-A*68:02 = biological target: HLA-A*68:02
HLA-A*02:03 = biological target: HLA-A*02:03
HLA-A*02:06 = biological target: HLA-A*02:06
HLA-A*02:02 = biological target: HLA-A*02:02
HLA-A*02:01 = biological target: HLA-A*02:01

Sequence	Kd (HLA-A*68:02)	Kd (HLA-A*02:03)	Kd (HLA-A*02:06)	Kd (HLA-A*02:02)	Kd (HLA-A*02:01)
FMIAFISCFA	397 nM	56 nM	112 nM	56 nM	32 nM
FMIVSISLV	48 nM	≤ 1 nM	6.2 nM	1.8 nM	16 nM
FLTDYIPGA	2100 nM	7.8 nM	1.2 nM	7.1 nM	0.7 nM
FVIFACNFV	1.2 nM	6.5 nM	5.6 nM	11 nM	34 nM
GLAAAVVAV	263 nM	1.3 nM	55 nM	31 nM	9.6 nM
FLSLSLLVI	9830 nM	83 nM	≥ 10000 nM	173 nM	736 nM
FLLGLLVHV	173 nM	4.6 nM	9.9 nM	37 nM	6.4 nM
ITMGSLFFV	1.1 nM	0.5 nM	0.26 nM	0.64 nM	0.16 nM
